# In article PMC7326016, “Structural Studies of Glutamate Dehydrogenase (Isoform 1) From Arabidopsis thaliana, an Important Enzyme at the Branch-Point Between Carbon and Nitrogen Metabolism” (Frontiers in Plant Science, 2020):
# Target: the molecule itself
# Experiment: crystal structure; two crystal structures of AtGDH1 (apo, 2.59 Å; complex with NAD+, 2.03 Å; 2OG in one subunit of the latter); one homohexamer in the asymmetric unit, space group P212121; inter-subunit contacts analysed with PISA
protein,measurement,value
"Glutamate dehydrogenase 1 from Arabidopsis thaliana (AtGDH1), homohexamer of α subunits (enzyme, A. thaliana, UniProt Q43314 1-411, looked up, Glutamate dehydrogenase 1 (AtGDH1, α subunit), Arabidopsis thaliana ecotype Col-0, locus At5g18170.1, UniProt Q43314; Cloned into pMCSG68; the His tag was cut off with TEV protease; also called glutamate dehydrogenase (isoform 1); source: E. coli BL21-Gold (DE3), purified (HisTrap, TEV cleavage, second HisTrap, Superdex 200 SEC)) MNALAATNRNFKLAARLLGLDSKLEKSLLIPFREIKVECTIPKDDGTLASFVGFRVQHDNARGPMKGGIRYHPEVDPDEVNALAQLMTWKTAVAKIPYGGAKGGIGCDPSKLSISELERLTRVFTQKIHDLIGIHTDVPAPDMGTGPQTMAWILDEYSKFHGYSPAVVTGKPIDLGGSLGRDAATGRGVMFGTEALLNEHGKTISGQRFVIQGFGNVGSWAAKLISEKGGKIVAVSDITGAIKNKDGIDIPALLKHTKEHRGVKGFDGADPIDPNSILVEDCDILVPAALGGVINRENANEIKAKFIIEAANHPTDPDADEILSKKGVVILPDIYANSGGVTVSYFEWVQNIQGFMWEEEKVNDELKTYMTRSFKDLKEMCKTHSCDLRMGAFTLGVNRVAQATILRGWGA",stoichiometry N,6
